The values that follow come from patent US20120014885A1 (DANISCO US, published 2012).

The term kon denotes the rate constant with which the complex forms. A lower kon goes with slow association. What is called Kd is a measure of binding affinity in units of concentration. Higher therefore signals weaker binding. The term koff denotes the first-order rate constant of dissociation. Low readings indicate a long-lived complex, high ones a short-lived complex.

For assay [1], the target named is T1, BSA (UniProt P02769 25-607). The assay can be described thus: phage ELISA, equivalent amounts of phage, anti-M13-HRP, ABTS, A405 after 30 min (n=3).
T1 sequence (P02769 25-607 limits assumed): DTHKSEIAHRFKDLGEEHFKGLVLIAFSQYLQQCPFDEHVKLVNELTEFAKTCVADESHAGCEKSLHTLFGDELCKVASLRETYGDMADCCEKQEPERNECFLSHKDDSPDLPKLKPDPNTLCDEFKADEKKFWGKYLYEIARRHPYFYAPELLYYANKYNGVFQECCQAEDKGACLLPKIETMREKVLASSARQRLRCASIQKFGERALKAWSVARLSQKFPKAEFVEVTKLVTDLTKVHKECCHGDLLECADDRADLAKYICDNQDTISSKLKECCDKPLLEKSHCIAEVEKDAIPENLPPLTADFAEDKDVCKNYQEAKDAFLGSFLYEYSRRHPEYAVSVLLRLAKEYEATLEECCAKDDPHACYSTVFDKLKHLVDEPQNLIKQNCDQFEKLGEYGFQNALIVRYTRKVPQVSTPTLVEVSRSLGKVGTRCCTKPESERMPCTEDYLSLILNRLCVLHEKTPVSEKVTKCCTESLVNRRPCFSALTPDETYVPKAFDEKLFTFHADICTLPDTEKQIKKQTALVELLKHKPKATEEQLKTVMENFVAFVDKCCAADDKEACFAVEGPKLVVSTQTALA
Procedure: (§1) Equivalent amounts of phage were evaluated to determine their relative binding affinity to hVEGF₁₆₅. […] Target-bound phage were detected with anti-M13-HRP.
For assay [2], the target named is T2, VegF (PeproTech), labeled with biotin (UniProt P15692-4 27-191, limits assumed, biotin label (site not stated)).
T2 construct: Captured on streptavidin coated beads in the BioVeris ECL assay; also called biotinylated VegF
T2 sequence (P15692 other isoform, or with tags, fused parts or gaps limits assumed): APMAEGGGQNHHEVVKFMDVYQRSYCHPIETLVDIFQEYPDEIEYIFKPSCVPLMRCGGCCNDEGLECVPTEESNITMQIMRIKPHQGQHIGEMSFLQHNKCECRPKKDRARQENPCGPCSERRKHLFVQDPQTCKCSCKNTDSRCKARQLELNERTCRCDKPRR
The assay can be described thus: ECL competition assay (BioVeris): biotinylated VegF on streptavidin beads, competitor ECL labeled Anti-VegF antibody.

Assay [3] addresses T3, human VEGF165 (human, UniProt P15692-4 27-191).
T3 construct: Bought protein; panning target, amine-coupled to CM5 chips for BIAcore, coated on plates; also called hVEGF165; hVEGF
The assay can be described thus: SPR (BIAcore 3000), VEGF165 coupled to CM5, peptide injected, TNF-alpha reference lane; two state reaction model with conformation change; first step of the two state fit (ka1). In general terms: SPR reads the build-up and loss of mass on a sensor chip optically.
Procedure: (§2) Affinities of the peptides for VEGF were measured using a BIAcore™-3000 surface plasmon resonance system (Biacore). A CM5 sensor chip was conditioned with 50 mM NaOH, 0.1% HCl, 0.1% SDS, and 0.08% H₃PO₄, and activated for covalent coupling of VEGF using N-ethyl-N′-(3-dimethylaminopropyl)-carbodiimide hydrochloride (EDC) and N-hydroxysuccinimide (NHS) according to the supplier's instructions (Biacore). Human VEGF₁₆₅ (Biosource) was diluted to 5 μg/ml in 20 mM sodium acetate, pH 4.8 and injected at a flow rate of 2 μl/min to achieve approximately 1000 to 6000 response units (RU) of coupled protein. TNF-alpha (human TNF-alpha, Biosource, Int., Camarillo, Calif.) was similarly coupled to the CM5 sensor chip to approximately 850 to 3500 RU in the reference lane. A solution of 1 M ethanolamine was injected as a blocking agent. In some experiments, an additional solution of EDC and NHS were injected to improve baseline stability and a solution of 1 M ethanolamine injected as a blocking agent. The reference lane was activated with EDC and NHS and blocked with ethanolamine.

Assay [4] has as its target T3, human VEGF165. The assay can be described thus: SPR (BIAcore 3000), VEGF165 coupled to CM5, peptide injected, TNF-alpha reference lane; two state reaction model with conformation change; overall KD of the two state fit.
Procedure: as §2
The target in assay [5] is T3, human VEGF165. The assay can be described thus: SPR (BIAcore 3000), VEGF165 coupled to CM5, peptide injected, TNF-alpha reference lane; two state reaction model with conformation change; first step of the two state fit (kd1).
Procedure: as §2
Assay [6] addresses T3, human VEGF165. The assay can be described thus: bound beta-lactamase activity (nitrocefin, mOD/min) on hVEGF165 coated wells after washing.
For assay [7], the target named is T1, BSA. The assay can be described thus: phage ELISA, anti-M13-HRP, ABTS, A405. (ELISA stands for enzyme-linked immunosorbent assay.)
Procedure: as §1

Ends that are not written are not given here.

T3 sequence (P15692 other isoform, or with tags, fused parts or gaps limits assumed): as above

In the case of TLWPTFW (tested as whole phage) [SEQ ID NO 2], the binding result with BSA [1] is “no binding”.

As to SLWPAFW (tested as whole phage) [SEQ ID NO 4], in the assay with BSA [1], the binding result was “no binding”.

B1: 2BBIck81 (designed binder)
chain: DDESSKPCCDQCACTKSNPPQCRCSDMRLNSCHSACKSCACYNLYGWTCFCVDITDFCYEPCKPSEDDKEN
notes: also called free 2BBIck81; 2BBlck81
Turning to B1, the “IC50 (read off the curve)” value in assay [2] is about 3000 nM.

B2: SEQ ID NO 1 (peptide)
peptide: YNLYGWT
notes: Clone of the PhD C7C library (NEB): the 7-mer stands between two cysteines on M13 phage; tested as whole phage; also called YNLYGWT
On to B2, for which the binding result with BSA [1] was “no binding”.

Consider NLWPHFW (tested as whole phage) [SEQ ID NO 3], for which, in the assay with BSA [1], the binding result is “no binding”.

Regarding TLWPSYW (tested as whole phage) [SEQ ID NO 7], the binding result in the assay with BSA [1] is “no binding”.

B3: biotinylated peptide CK37281 (peptide)
peptide: ACYNLYGWTC
modifications: cysteine pairing not given here; also: biotinylated (site not given here)
notes: Synthetic peptide (FMOC chemistry, SynPep)
B3 yielded an on-rate constant (kon) with human VEGF165 [3] of 2840 M⁻¹ s⁻¹. Besides, the equilibrium dissociation constant (Kd) with human VEGF165 [4] was determined as 1920 nM. Besides, in the assay with human VEGF165 [5], the dissociation rate constant (koff) turned out to be 0.0122 s⁻¹.

Turning to HLAPSAV (tested as whole phage) [SEQ ID NO 13], the binding result in the assay with BSA [1] is on record as “no binding”.

B4: BLA (enzyme)
chain: TPVSEKQLAEVVANTITPLMKAQSVPGMAVAVIYQGKPHYYTFGKADIAANKPVTPQTLFELGSISKTFTGVLGGDAIARGEISLDDAVTRYWPQLTGKQWQGIRMLDLATYTAGGLPLQVPDEVTDNASLLRFYQNWQPQWKPGTTRLYANASIGLFGALAVKPSGMPYEQAMTTRVLKPLKLDHTWINVPKAEEAHYAWGYRDGKAVRVSPGMLDAQAYGVKTNVQDMANWVMANMAPENVADASLKQGIALAQSRYWRIGSMYQGLGWEMLNWPVEANTVVEGSDSKVALAPLPVAEVNPPAPPVKASWVHKTGSTGGFGSYVAFIPEKQIGIVMLANTSYPNPARVEAAYHILEALQHHHHHH
notes: also called pCB04; pCB04 (WT)
Turning to B4, the binding result with human VEGF165 [6] is recorded as “no binding (tested: about 40 uM)”.

On to APWNSHI (tested as whole phage) [SEQ ID NO 5], for which the binding result in the assay with BSA [1] was “no binding”.

APWNLHI (tested as whole phage) [SEQ ID NO 6]: the binding result with BSA [7] was “no binding”.
